Kd data for 27 molecules are collected here from paper PMC10786891, “Massively parallel profiling of RNA-targeting CRISPR-Cas13d”.

T1: EsCas13d, nuclease-dead (Eubacterium siraeum, UniProt B0MS50, R295A;H300A;R849A;H854A)
T1 sequence: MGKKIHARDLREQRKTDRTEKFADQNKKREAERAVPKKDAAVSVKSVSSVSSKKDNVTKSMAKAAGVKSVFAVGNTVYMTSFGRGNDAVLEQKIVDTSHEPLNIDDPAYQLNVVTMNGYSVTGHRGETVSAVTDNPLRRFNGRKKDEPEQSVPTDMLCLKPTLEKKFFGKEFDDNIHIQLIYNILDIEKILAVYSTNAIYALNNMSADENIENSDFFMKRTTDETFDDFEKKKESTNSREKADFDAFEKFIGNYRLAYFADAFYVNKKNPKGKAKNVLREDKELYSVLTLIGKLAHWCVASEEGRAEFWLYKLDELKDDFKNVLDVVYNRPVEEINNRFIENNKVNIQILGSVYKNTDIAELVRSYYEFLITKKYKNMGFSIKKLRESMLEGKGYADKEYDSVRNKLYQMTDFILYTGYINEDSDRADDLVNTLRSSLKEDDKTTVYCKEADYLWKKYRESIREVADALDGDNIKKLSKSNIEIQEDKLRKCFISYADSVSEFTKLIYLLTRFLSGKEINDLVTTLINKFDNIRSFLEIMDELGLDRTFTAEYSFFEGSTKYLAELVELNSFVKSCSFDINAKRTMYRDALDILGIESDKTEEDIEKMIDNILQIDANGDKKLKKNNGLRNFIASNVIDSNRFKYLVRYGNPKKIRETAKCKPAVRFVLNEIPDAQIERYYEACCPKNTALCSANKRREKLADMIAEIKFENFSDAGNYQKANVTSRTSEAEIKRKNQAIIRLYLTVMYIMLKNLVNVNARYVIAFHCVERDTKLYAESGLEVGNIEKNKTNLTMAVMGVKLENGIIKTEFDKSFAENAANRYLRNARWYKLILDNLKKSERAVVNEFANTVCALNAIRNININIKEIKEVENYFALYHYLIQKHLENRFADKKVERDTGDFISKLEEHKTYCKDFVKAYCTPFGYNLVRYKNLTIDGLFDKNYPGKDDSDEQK

B1: target 3 C1A,U10G (mixed)
RNA 1: CACCCGUGCAAAAUUGCAGGGGUCUAAAACGACCUGAAUAUUUCAGAUCAAA
RNA 2: GGGAAUGGAUCCACAUCUACGAAUUCGUUUUUGAUCUGAAAGAUUCAGGUAUGCAGAUCGGAAGAGCACACGU
B2: target 3 insU 3' of 3,insG 3' of 2 (mixed)
RNA 1: CACCCGUGCAAAAUUGCAGGGGUCUAAAACGACCUGAAUAUUUCAGAUCAAA
RNA 2: GGGAAUGGAUCCACAUCUACGAAUUCGUUUUUGAUCUGAAAUAUUCAGGUUGCUGCAGAUCGGAAGAGCACACGU
B3: target 3 C6A,A11G (mixed)
RNA 1: CACCCGUGCAAAAUUGCAGGGGUCUAAAACGACCUGAAUAUUUCAGAUCAAA
RNA 2: GGGAAUGGAUCCACAUCUACGAAUUCGUUUUUGAUCUGAAGUAUUAAGGUCUGCAGAUCGGAAGAGCACACGU
B4: target 3 insA 3' of 3,insA 3' of 3 (mixed)
RNA 1: CACCCGUGCAAAAUUGCAGGGGUCUAAAACGACCUGAAUAUUUCAGAUCAAA
RNA 2: GGGAAUGGAUCCACAUCUACGAAUUCGUUUUUGAUCUGAAAUAUUCAGGAAUCUGCAGAUCGGAAGAGCACACGU
B5: target 3 insC 3' of 7,insC 3' of 2 (mixed)
RNA 1: CACCCGUGCAAAAUUGCAGGGGUCUAAAACGACCUGAAUAUUUCAGAUCAAA
RNA 2: GGGAAUGGAUCCACAUCUACGAAUUCGUUUUUGAUCUGAAAUAUUCCAGGUCCUGCAGAUCGGAAGAGCACACGU
B6: target 3 A18G,U22A (mixed)
RNA 1: CACCCGUGCAAAAUUGCAGGGGUCUAAAACGACCUGAAUAUUUCAGAUCAAA
RNA 2: GGGAAUGGAUCCACAUCUACGAAUUCGUUAUUGGUCUGAAAUAUUCAGGUCUGCAGAUCGGAAGAGCACACGU
B7: target 3 A5U,U7A (mixed)
RNA 1: CACCCGUGCAAAAUUGCAGGGGUCUAAAACGACCUGAAUAUUUCAGAUCAAA
RNA 2: GGGAAUGGAUCCACAUCUACGAAUUCGUUUUUGAUCUGAAAUAUACUGGUCUGCAGAUCGGAAGAGCACACGU
B8: target 3 insU 3' of 4,insA 3' of 3 (mixed)
RNA 1: CACCCGUGCAAAAUUGCAGGGGUCUAAAACGACCUGAAUAUUUCAGAUCAAA
RNA 2: GGGAAUGGAUCCACAUCUACGAAUUCGUUUUUGAUCUGAAAUAUUCAGUGAUCUGCAGAUCGGAAGAGCACACGU
B9: target 3 insG 3' of 2 (mixed)
RNA 1: CACCCGUGCAAAAUUGCAGGGGUCUAAAACGACCUGAAUAUUUCAGAUCAAA
RNA 2: GGGAAUGGAUCCACAUCUACGAAUUCGUUUUUGAUCUGAAAUAUUCAGGUGCUGCAGAUCGGAAGAGCACACGU
B10: target 3 C6A,U8A (mixed)
RNA 1: CACCCGUGCAAAAUUGCAGGGGUCUAAAACGACCUGAAUAUUUCAGAUCAAA
RNA 2: GGGAAUGGAUCCACAUCUACGAAUUCGUUUUUGAUCUGAAAUAAUAAGGUCUGCAGAUCGGAAGAGCACACGU
B11: target 3 U2G,A5U (mixed)
RNA 1: CACCCGUGCAAAAUUGCAGGGGUCUAAAACGACCUGAAUAUUUCAGAUCAAA
RNA 2: GGGAAUGGAUCCACAUCUACGAAUUCGUUUUUGAUCUGAAAUAUUCUGGGCUGCAGAUCGGAAGAGCACACGU
B12: target 3 G3U,G4A (mixed)
RNA 1: CACCCGUGCAAAAUUGCAGGGGUCUAAAACGACCUGAAUAUUUCAGAUCAAA
RNA 2: GGGAAUGGAUCCACAUCUACGAAUUCGUUUUUGAUCUGAAAUAUUCAAUUCUGCAGAUCGGAAGAGCACACGU
B13: target 3 insU 3' of 22,insC 3' of 8 (mixed)
RNA 1: CACCCGUGCAAAAUUGCAGGGGUCUAAAACGACCUGAAUAUUUCAGAUCAAA
RNA 2: GGGAAUGGAUCCACAUCUACGAAUUCGUUUUUUGAUCUGAAAUAUCUCAGGUCUGCAGAUCGGAAGAGCACACGU
B14: target 3 insU 3' of 19 (mixed)
RNA 1: CACCCGUGCAAAAUUGCAGGGGUCUAAAACGACCUGAAUAUUUCAGAUCAAA
RNA 2: GGGAAUGGAUCCACAUCUACGAAUUCGUUUUUGUAUCUGAAAUAUUCAGGUCUGCAGAUCGGAAGAGCACACGU
B15: target 3 U2G,A18G (mixed)
RNA 1: CACCCGUGCAAAAUUGCAGGGGUCUAAAACGACCUGAAUAUUUCAGAUCAAA
RNA 2: GGGAAUGGAUCCACAUCUACGAAUUCGUUUUUGGUCUGAAAUAUUCAGGGCUGCAGAUCGGAAGAGCACACGU
B16: target 3 insU 3' of 22,insU 3' of 11 (mixed)
RNA 1: CACCCGUGCAAAAUUGCAGGGGUCUAAAACGACCUGAAUAUUUCAGAUCAAA
RNA 2: GGGAAUGGAUCCACAUCUACGAAUUCGUUUUUUGAUCUGAAAUUAUUCAGGUCUGCAGAUCGGAAGAGCACACGU
B17: target 3 insA 3' of 7,insA 3' of 6 (mixed)
RNA 1: CACCCGUGCAAAAUUGCAGGGGUCUAAAACGACCUGAAUAUUUCAGAUCAAA
RNA 2: GGGAAUGGAUCCACAUCUACGAAUUCGUUUUUGAUCUGAAAUAUUACAAGGUCUGCAGAUCGGAAGAGCACACGU
B18: target 3 insA 3' of 15,insG 3' of 2 (mixed)
RNA 1: CACCCGUGCAAAAUUGCAGGGGUCUAAAACGACCUGAAUAUUUCAGAUCAAA
RNA 2: GGGAAUGGAUCCACAUCUACGAAUUCGUUUUUGAUCUAGAAAUAUUCAGGUGCUGCAGAUCGGAAGAGCACACGU
B19: target 3 A18G,U20A (mixed)
RNA 1: CACCCGUGCAAAAUUGCAGGGGUCUAAAACGACCUGAAUAUUUCAGAUCAAA
RNA 2: GGGAAUGGAUCCACAUCUACGAAUUCGUUUUAGGUCUGAAAUAUUCAGGUCUGCAGAUCGGAAGAGCACACGU
B20: target 3 insA 3' of 22,insA 3' of 3 (mixed)
RNA 1: CACCCGUGCAAAAUUGCAGGGGUCUAAAACGACCUGAAUAUUUCAGAUCAAA
RNA 2: GGGAAUGGAUCCACAUCUACGAAUUCGUUUAUUGAUCUGAAAUAUUCAGGAUCUGCAGAUCGGAAGAGCACACGU
B21: target 3 G4C,A5C (mixed)
RNA 1: CACCCGUGCAAAAUUGCAGGGGUCUAAAACGACCUGAAUAUUUCAGAUCAAA
RNA 2: GGGAAUGGAUCCACAUCUACGAAUUCGUUUUUGAUCUGAAAUAUUCCCGUCUGCAGAUCGGAAGAGCACACGU
B22: target 3 G4U,U21G (mixed)
RNA 1: CACCCGUGCAAAAUUGCAGGGGUCUAAAACGACCUGAAUAUUUCAGAUCAAA
RNA 2: GGGAAUGGAUCCACAUCUACGAAUUCGUUUGUGAUCUGAAAUAUUCAUGUCUGCAGAUCGGAAGAGCACACGU
B23: target 3 C1G,C6G (mixed)
RNA 1: CACCCGUGCAAAAUUGCAGGGGUCUAAAACGACCUGAAUAUUUCAGAUCAAA
RNA 2: GGGAAUGGAUCCACAUCUACGAAUUCGUUUUUGAUCUGAAAUAUUGAGGUGUGCAGAUCGGAAGAGCACACGU
B24: target 3 insU 3' of 4,insC 3' of 3 (mixed)
RNA 1: CACCCGUGCAAAAUUGCAGGGGUCUAAAACGACCUGAAUAUUUCAGAUCAAA
RNA 2: GGGAAUGGAUCCACAUCUACGAAUUCGUUUUUGAUCUGAAAUAUUCAGUGCUCUGCAGAUCGGAAGAGCACACGU
B25: target 1 U3A,U8G (mixed)
RNA 1: CACCCGUGCAAAAAUGCAGGGGUCUAAAACUGAGCGGAUAACCUCUCUAUGG
RNA 2: GGGAAUGGAUCCACAUCUACGAAUUCGUACCAUAGAGAGGUUAGCCGCACACCGAGAUCGGAAGAGCACACGU
B26: target 1 U10C,U19C (mixed)
RNA 1: CACCCGUGCAAAAAUGCAGGGGUCUAAAACUGAGCGGAUAACCUCUCUAUGG
RNA 2: GGGAAUGGAUCCACAUCUACGAAUUCGUACCACAGAGAGGUCAUCCGCUCACCGAGAUCGGAAGAGCACACGU
B27: target 1 insU 3' of 21,insC 3' of 1 (mixed)
RNA 1: CACCCGUGCAAAAAUGCAGGGGUCUAAAACUGAGCGGAUAACCUCUCUAUGG
RNA 2: GGGAAUGGAUCCACAUCUACGAAUUCGUACCUAUAGAGAGGUUAUCCGCUCACCCGAGAUCGGAAGAGCACACGU

By Kd is commonly meant the free concentration of one partner at which half of the binding sites on the other are occupied at equilibrium, for simple one-to-one binding.

This series concerns the target T1, EsCas13d, nuclease-dead. Nature of the series: crRNA (strand 1, pre-loaded); Mg2+; 40 mM Tris-HCl pH 7.5, 150 mM NaCl, 6 mM MgCl2, 1 mM DTT, 0.1% Tween-20, 0.2 mg/ml BSA; 25 C; 10 min per concentration, then washed. As to conditions: tags: His6-TwinStrep-SUMO cleaved; N-terminal SNAP kept (SNAP-Surface 488); label: 3' end held by stalled T7 RNA polymerase.
For the molecule B1, the Kd was around 90.5 nM.

For B2, the Kd was determined as 27 ± 4.5 nM.

Molecule B3 had an equilibrium dissociation constant (Kd) of 98 ± 23 nM.

Take B4: the Kd was found to be 15.5 ± 1.65 nM.

B5 gave a Kd of around 120 nM.

In turn, B6 returned a Kd of 14.8 ± 1.75 nM.

B7 gave a Kd of 62.4 ± 5.4 nM.

In turn, B8 yielded a Kd of 17.8 ± 2.45 nM.

B9 yielded a Kd of 37.1 ± 3.7 nM.

Take B10: the affinity, expressed as Kd, was 59 ± 8.5 nM.

The molecule B11 came in with a Kd of 9.2 ± 1.2 nM.

Turning to B12, the Kd is 7.75 ± 1.05 nM.

Molecule B13 gave a dissociation constant (Kd) of 106 ± 32 nM.

B14 came in with a Kd of 78 ± 29.5 nM.

Regarding B15, binding was put at a Kd of 59.5 ± 7.5 nM.

In turn, B16 gave a Kd of 62 ± 19.5 nM.

Consider B17, for which the Kd came out at 23.7 ± 2.65 nM.

In turn, B18 registered a Kd of 68.5 ± 21.5 nM.

Consider B19, for which the affinity, expressed as Kd, was 83.5 ± 36.5 nM.

Molecule B20 returned a Kd of 22.2 ± 4.4 nM. This Kd lies about 3.8-fold lower than the previous one.

In turn, B21 yielded a Kd of 130 ± 40 nM.

In turn, B22 yielded a Kd of 65 ± 14 nM.

Molecule B23 returned a Kd of 18.7 ± 3.15 nM. Compared with the last molecule, the Kd is about 3.5-fold lower.

The molecule B24 came in with a Kd of 17.4 ± 1.7 nM.

Take B25: binding was characterised by a dissociation constant (Kd) of 11.9 ± 0.5 nM. The Kd values of the last two molecules are within 1.5-fold of each other.

Regarding B26, binding was put at a Kd of 70 ± 12 nM.

Molecule B27 had a Kd of 20.5 ± 0.8 nM.
